Experimental data: patent US20040259194A1
Values joined by “and” are separate entries in the source; they are usually repeats but may differ in a detail not shown here. Equal values may be shown once.

Molecular target: melanin-concentrating hormone receptor 1 (MCHR1) from I3.4.2 cells (human) (UniProt Q99705)
Assay: cell-based or functional assay

Chain of melanin-concentrating hormone receptor 1 (MCHR1) from I3.4.2 cells (human) (Q99705 whole entry): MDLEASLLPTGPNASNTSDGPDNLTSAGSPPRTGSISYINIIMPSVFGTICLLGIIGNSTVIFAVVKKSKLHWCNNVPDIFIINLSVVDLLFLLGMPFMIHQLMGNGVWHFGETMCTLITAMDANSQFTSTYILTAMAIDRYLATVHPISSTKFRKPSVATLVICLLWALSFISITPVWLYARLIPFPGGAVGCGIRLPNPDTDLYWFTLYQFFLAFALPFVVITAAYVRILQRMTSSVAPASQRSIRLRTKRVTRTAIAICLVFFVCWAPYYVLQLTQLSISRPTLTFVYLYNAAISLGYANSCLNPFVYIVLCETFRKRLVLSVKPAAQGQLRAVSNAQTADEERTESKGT

melanin-concentrating hormone (MCH) (from UniProt P20382 147-165) (peptide)
Ca++ response to 1 uM MCH, relative fluorescence units (FLIPR), baseline approximately 700 RFU: 5000 RFU and 6000 RFU
EC50 for MCH-mediated Ca++-mobilization (fluorometric imaging plate reader) on I3.4.2 cells: 90 nM
EC50 for receptor activation, Ca++-mobilization assay (FLIPR) on T42402I3.4.2 cells: 80 nM
